The text below walks through data of patent US20250262210A1 (TRUSTEES OF COLUMBIA UNIVERSITY IN THE CITY OF NEW YORK, published 2025).

For the test, the target named is T1, RNF123 (human, UniProt Q5XPI4 2-1314, limits assumed).
T1 sequence (looked up): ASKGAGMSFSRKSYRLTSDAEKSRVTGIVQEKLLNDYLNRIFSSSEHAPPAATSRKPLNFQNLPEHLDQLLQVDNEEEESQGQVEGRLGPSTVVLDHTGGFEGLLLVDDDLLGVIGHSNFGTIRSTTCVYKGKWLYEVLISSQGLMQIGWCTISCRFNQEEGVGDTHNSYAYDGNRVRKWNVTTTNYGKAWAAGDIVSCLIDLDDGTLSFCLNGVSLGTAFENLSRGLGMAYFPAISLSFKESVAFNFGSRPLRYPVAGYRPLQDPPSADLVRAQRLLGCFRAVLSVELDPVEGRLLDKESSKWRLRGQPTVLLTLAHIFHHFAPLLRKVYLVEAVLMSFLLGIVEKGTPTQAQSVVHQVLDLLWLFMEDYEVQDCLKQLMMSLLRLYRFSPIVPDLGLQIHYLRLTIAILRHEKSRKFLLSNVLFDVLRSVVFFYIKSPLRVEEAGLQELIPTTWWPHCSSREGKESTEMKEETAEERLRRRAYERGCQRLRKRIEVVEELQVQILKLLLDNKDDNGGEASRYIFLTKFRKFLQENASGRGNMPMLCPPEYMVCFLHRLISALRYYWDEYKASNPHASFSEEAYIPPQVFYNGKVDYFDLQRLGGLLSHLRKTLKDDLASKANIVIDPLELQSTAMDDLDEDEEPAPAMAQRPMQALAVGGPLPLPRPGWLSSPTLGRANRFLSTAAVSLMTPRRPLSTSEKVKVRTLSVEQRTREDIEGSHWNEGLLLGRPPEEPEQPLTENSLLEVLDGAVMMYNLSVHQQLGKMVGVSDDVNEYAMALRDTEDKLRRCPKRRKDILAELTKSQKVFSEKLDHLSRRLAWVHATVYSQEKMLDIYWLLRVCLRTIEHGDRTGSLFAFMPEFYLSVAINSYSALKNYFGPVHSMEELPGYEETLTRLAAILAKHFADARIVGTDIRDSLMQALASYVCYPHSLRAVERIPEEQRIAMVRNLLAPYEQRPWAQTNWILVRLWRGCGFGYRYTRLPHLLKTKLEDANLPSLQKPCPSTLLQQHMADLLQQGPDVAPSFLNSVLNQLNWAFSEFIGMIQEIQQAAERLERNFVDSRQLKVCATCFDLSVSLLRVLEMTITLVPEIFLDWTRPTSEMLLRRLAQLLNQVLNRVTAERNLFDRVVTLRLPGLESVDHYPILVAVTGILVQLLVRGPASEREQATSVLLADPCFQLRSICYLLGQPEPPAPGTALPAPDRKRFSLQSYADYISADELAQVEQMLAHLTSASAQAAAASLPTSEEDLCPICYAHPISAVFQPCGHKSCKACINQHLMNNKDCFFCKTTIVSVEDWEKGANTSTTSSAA
Briefly: IP/MS, LZTR1 wild type-FLAG, U87. The procedure, abridged: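 Read-out: spectral counts from LC-MS/MS (Orbitrap Fusion) after MaxQuant identification. Variable modifications were Met oxidation, protein N-terminal acetylation and N/Q deamidation.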

B1: LZTR1-FLAG (other, human, UniProt Q8N653 1-840, looked up)
chain: MAGPGSTGGQIGAAALAGGARSKVAPSVDFDHSCSDSVEYLTLNFGPFETVHRWRRLPPCDEFVGARRSKHTVVAYKDAIYVFGGDNGKTMLNDLLRFDVKDCSWCRAFTTGTPPAPRYHHSAVVYGSSMFVFGGYTGDIYSNSNLKNKNDLFEYKFATGQWTEWKIEGRLPVARSAHGATVYSDKLWIFAGYDGNARLNDMWTIGLQDRELTCWEEVAQSGEIPPSCCNFPVAVCRDKMFVFSGQSGAKITNNLFQFEFKDKTWTRIPTEHLLRGSPPPPQRRYGHTMVAFDRHLYVFGGAADNTLPNELHCYDVDFQTWEVVQPSSDSEVGGAEVPERACASEEVPTLTYEERVGFKKSRDVFGLDFGTTSAKQPTQPASELPSGRLFHAAAVISDAMYIFGGTVDNNIRSGEMYRFQFSCYPKCTLHEDYGRLWESRQFCDVEFVLGEKEECVQGHVAIVTARSRWLRRKITQARERLAQKLEQEAAPVPREAPGVAAGGARPPLLHVAIREAEARPFEVLMQFLYTDKIKYPRKGHVEDVLLIMDVYKLALSFQLCRLEQLCRQYIEASVDLQNVLVVCESAARLQLSQLKEHCLNFVVKESHFNQVIMMKEFERLSSPLIVEIVRRKQQPPPRTPLDQPVDIGTSLIQDMKAYLEGAGAEFCDITLLLDGHPRPAHKAILAARSSYFEAMFRSFMPEDGQVNISIGEMVPSRQAFESMLRYIYYGEVNMPPEDSLYLFAAPYYYGFYNNRLQAYCKQNLEMNVTVQNVLQILEAADKTQALDMKRHCLHIIVHQFTKVSKLPTLRSLSQQLLLDIIDSLASHISDKQCAELGADI
notes: Expressed in HEK 293T, HeLa or U87 cells; used as cell lysate; also called LZTR1 wild type-FLAG; LZTR1 WT; not shown: FLAG tag at the C-terminus
For the molecule B1, the binding result is recorded as “binds”.
